Molecular target: the molecule itself
Assay: AUC; sedimentation equilibrium at different protein concentrations and rotor speeds, 20 °C, global fit to a monomer-dimer self-association model; dimer to monomers

B1: R1-WT, isolated RING domain of rhesus TRIM5α (domain or fragment, rhesus monkey, UniProt Q0PF16 2-90, looked up)
chain: ASGILLNVKEEVTCPICLELLTEPLSLHCGHSFCQACITANHKKSMLYKEGERSCPVCRISYQPENIQPNRHVANIVEKLREVKLSPEE
notes: TRIM5α RING domain, rhesus monkey, residues 2-90 (methods); the results give residues 2-89; Tags removed by TEV protease; 15N-labelled for NMR; also called RING monomer; isolated RING monomer; source: bacteria, purified (Ni-NTA, Superdex 75); not shown: His6, N-terminal, cleaved; GB1, N-terminal, cleaved
Kd: 63 ± 28 µM

— PMC9675739, “Structural and functional asymmetry of RING trimerization controls priming and extension events in TRIM5α autoubiquitylation” (Nature Communications, 2022)
